Measured values from the nanobody polyreactivity screen of Harvey et al. (2022).

assay: yeast display, Sf9 membrane polyspecificity reagent, FACS + sequencing; frameworks hold sequencing errors
Method in brief: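 A synthetic nanobody library was expressed on Saccharomyces cerevisiae BJ5465 by galactose induction for 36–48 hours. The library was stained for 1 hour at 4 °C with 10% biotinylated, detergent-solubilized Sf9 membrane reagent and enriched with streptavidin microbeads before FACS. Low and high (top ~1%) gates were set on anti-HA fluorescence for expression and streptavidin fluorescence for reagent binding, and each polyreactivity label reflects the gate of origin.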

| Sequence | polyreactivity (PSR sort gate) |
| --- | --- |
| QVQIEESGGGLVQAGGSLRLSCAASGFTFTYNDMGWNRQAPGKETEFVAAISSTGGSTYYADSVKGRFTISRDNAKNTVYLQMNSLKPEDTAVYYCAAEDSWYWDAWFDYWGQGTQVTVSS | low polyreactivity |
| QVQLVESGGGLVQAGGSLRLSCAASGSIFASNTMGWYRQAPGKERELVAGITKIGSSTYYADSVKGRFTISRDNAKNTVYLQMNSLKPEDTAVYYGNADYYFSWGSIEDYWGQGTQVSVSS | low polyreactivity |
| QVQLVESGGGLVQAGGSLRLSCAASGRTFTYYAMGWYRQAPGKERELVARISSSGSTNYADSVKGRFTISRDNAKNTVYLQMNSLKPEDTAVYYCAARYWRGPRYDYWGQGTQVTVSS | high polyreactivity |
| QVQLVESGGGLVQAGGSLRLSCAASGSIFNPYDMGWYRQAPGKERELVAAIDWSGGSTYYADSVKGRFTISRDNAKNTVYLQMNSLKPEDTAVYYCNAESYQDTLFGADNDYDYWGQGTQVTVSS | low polyreactivity |
| QVQLVESGGGLVQAGGSLRLSCPASGGTFSFYTMGGYRQSPGKEREWVAAIDSTGRTNYADSVKGRFTISRDYPKNTVYLQMNRLIPEDTAVYYCAAVSPTYPYTFYRYNYWGQGTQVTVSS | low polyreactivity |
| QVQLVESGVGLVQAGGRLRLSCAASGRTFYYYAMGWYRQAAAKERELVAAITTDGGNTFYADSVKGRFTISRDNAKNSVYIQMNSLKPEDSAVYYWAKSDTEGYYWDVPVTFDYGGQGTQVTVSS | low polyreactivity |
| QVQLVESWGGLVQAGGSLRLSCAASGRIFYGYAMAWYRQAPGKEREFVAAITVSAGSTYYADSVKGRFTISRDNAKNTVYLQMNSLKPEDTEVYYCAAKRYVYTSYRFVYWGQGTQVTVSS | low polyreactivity |
| QVQLVESGGGLVQAGGSLRLSCAASGYIFWSYAMGWYRQAPGKERELVAGITASGGSTYYADSVKGRFTISRDNAKNTVYLQMNSLKPEDTAVYYCAAEAYTQYWIYYYWGQCTQVTVSS | high polyreactivity |
| QVQLVESGGGLVQAGVSLRLSCAASGSTFSNYAMGWYRQAPGKERELVAGIDWSGGSTYYADSVKGRFTISRDNEKITVYLQMNSLKPEDTAVYYCAKRVWYHGRKLRGYYWGQGTQVTVSS | low polyreactivity |
| QVQLVESGGGLVQAGGSLRLSCAASGNTFDVYAMGWYRQAPGKEREFVARISGRVGSTYYADSVKGRFTISRDNAKYTVYLQMNSLKPEDTAVYYCNRRYQSRNMGYWGQGTQVTVSS | high polyreactivity |
| QVQLVESGGGLVQAGGSLRLSCAASGSIFVRNVMGWYRQAPGKERELVAAISGSGGSTYYADSVKGRFTISRDNAKNTVYLQMNSLKPEDTAVYYCAAPRNLYGVYSYYYWGQGTQVTVSS | high polyreactivity |
| QDQLVESGGGLVQAGGSLRLSCAASGLIFPYNAMGWYRQAPGKERELVAAIDTRGSSTYYADSVKGRFTISRDNAKNTVYLQMNSLKPEDTAVYYCIPRSGRSPTGFRYWGQGTEVTVSS | high polyreactivity |
| QFQLVESGGGLVQAGGSLRLSCAASGRISYAYAMGWYRQAPGKEREFVAAISGSGGSTYYADSVKGRFTISRDNAKKTVYLQMNSLKPEDTAVYYCDAGSGEYYGGKRYYWGQGTQVTVSS | low polyreactivity |
| QVQLVESGGRLVQAGGSLRLSCAASGSNFETYDMGWYRQAPRKERELVAAITLSGGSTYYADSVKGRFTISRDNAKNTVYLQMNSLKPEDTAVYYCAADDSGVKVWEGDYWGQGTQVTVSS | low polyreactivity |
| QVQLVESGGGLVQAGGSLRLSCAASGSTFGRYVMGLYRQAPGQERELVAAISKNAGSTYYADSVKGRFTISRDNAKNTVYLQMNSLKPEDTAVYYCAADWRTKGYDSLGQGTQVTVSS | high polyreactivity |
| QVQLVESGGGLVQAGGSLRLSCAASGITFYLNAMGWYRQAPGKDRELVADITVSGGSTYYADSVKGRFTISRDNAKNTVYLQMNSLKPEDTAVYYCAADLTISYSQEYYYWGQGTQVTLSS | low polyreactivity |
| QFQLVESGGGLVQAGGSLRLSCAASGFTFWLYAMGWYRQAPGKEREFVAAISTSGGSTYADSVKGRFTISRDNAKNTVYLHMNSLKPEDTAVYYCNAGYLLYYDYHLFYWGQGTQVTVSS | low polyreactivity |
| QVQLVESGGGLVQAGGSLRLSCDASGIILNINAMGWYRQAPGKERELVAAITSDGSTNYADSVKGRFTISRDNAKNTVYLQMNSLKPEDTAVYYCAVDLPWGTGVSQYPESDYWGQGTQVTVSS | low polyreactivity |
| QVQLVESGGGLVQAGGSLRLSCAASGFIFARYAMGWYRQAPGKERELVAAISSSGSSSYYADSVKGRFTISRDNAKNTVYLQMNSLKPEDTAVYYCAAKDSKYRNSPLYNYWGQGTQVTVSS | high polyreactivity |
| QVQLVESGGGLVQAGGSLRLSCAASGRTFVDNAMGWYRHAPGKERELVAAISSGGTTNYADSVKGRFTISRDNAKNTVYLQMNSLKPEDTAVYYCNTVATYLRSGYGYWGQGTQVTVSS | low polyreactivity |
| QVQLVESGGGLVQAGGSLRLSCAASGITFDENTMGWYRQATGKERELVASISNGGNTYYADSVKGRFTISRDNAKNTVYLQMNSLKPEDSAVYYCAARYGYYYSRYDHWGQGTQVTVSS | low polyreactivity |
| QVQLVESGGGLVQAGGSLRLSCAASGRIFYYNSMGWYRQAPGKERELVAAIRRSGSRTYYADSVKGRFTISRDNAKNTVYFQMNSLIPEDTAVYYCAAKYASFGHHDSWGQGTQVTVSS | high polyreactivity |

| Sequence | polyreactivity (PSR sort gate) |
| --- | --- |
| QVQLVESGGGLVQAGGSLRLSCGASGFIFLKNAMGWYRQAPGKARELVAAITRSGDITYYADSVKGRFTISRDNAKNTVYLKMNSLKPEDTAVYYCATTREFPSYDSWGQGTQVTVSS | low polyreactivity |
| QVQLVESGGGLVQAGGSLRLSCAASGSTFVYNAMGRYRQAPVKERELVAAISSGGSTYYADSVKGRFTISRDNAKNTVYLQMNSLKPEATAVYYCNARGSWRRDKYGTYYRYDYWGQGTQVTVSS | high polyreactivity |
| QVQLVESGGGLVQAGGSLRLSCAASGSIFSYNAMGWSRQAPGNERELVARISYSGGSTYYADSVKGRFTISRDNAKNTVYLQMNSLKPEDTAVYYCAKRAYGWPYDYWGQGTQVTVSS | high polyreactivity |
| QVQLVESGGGLVQAGGSLRLSCAASGSILYSYAMGWYRQAPGKERELVARITKRGGRTYYADSVKGRFTISRDNAKNTVYILMNSLKPEDTAVYYCAADFQYSYGEYDYWGQGTQVTVSS | high polyreactivity |
| QVQLVESGGGLVQAGGILRLSCAASGYILYGYAMGWYTQAPGKERELVAAISNDGSTYYADSVKGRFTISRDNAKNTVYLQMNSLKPEDTAVYYCNADAWRKVPHPGTGGRDYWGQGTQVTVSS | high polyreactivity |
| QVQLVESGGGLVQAGCSLRLSCAASGSTSAYYVMGWNRQAPGKARELVAAIDFSGDSTYYADSVKGRFTISRDNAKNTVYLQMNSLKPEDTAVYYCAAELFYYSSLVTYEYWGQGTQVTVSS | high polyreactivity |
| QVQLVESGGGLVQAGGSLRLSCAASGITFGDNTMGWYRQAPGKERELVAAITYSSTSTYYADSVKGRFTISRDNAKNTVYLQMNSLKPEDTAVYYCAAEGPGDVVSTDYDYWGQGTQVTVSS | low polyreactivity |
| QVQLLETGGGLVQAGASLRLSCAASGSTFEDNAMGWYRQAPGKERELVAAITSGGNTYYADSVKGRFTIARDNAKNTVYLPMNSLKPEDTAVYYCNAVPFYYVFDYWGQGTQVTVSS | low polyreactivity |
| QVQLVESGGGLVQAGGSLRLSCAASGSIFDLNAMGWYRQAPGKERELVAAISSGGGTYYADSVKGRFTISRDNAKNTVYLKMNSLKPEDTAVYYCKRVTRWTYNYWGQGTQVSVSS | high polyreactivity |
| QVQLVESGGGLVQAGGSLRLSCAASGRIFGEYAMGWYSQAPGKERELVASISSGGNTNYADSVKGRFTISRDNAKNTFYLQMNSLKPEDTAVYYCAADDYATPQKMDYWGQGTQVTVSS | high polyreactivity |
| QVQLVESGGGLVQAGGSLRLSCAASGRIIIRYAMGWYRQAPGKERELVAGISRRGGSTSYADSVKWRFTISRDNAKNTVYLQMNSLKPEDTAVYYCGADSQYKYDYWGQGTQVTVSS | high polyreactivity |
| QVQLVESVGGLVQAGGSLRLSCAASGIFRQNAMGWYRQAPGKERELVAGISQSGGSTYYADSVKGRFTISRDNAKNTVYLQMNSLKPEDTAVYYCAVVSIWGYDYWGQGTQVTVSS | low polyreactivity |
| QVQLVESGGGLVQAGGSLRLSCAASGRIFKFNAMGWYREAPGKERELVAAITTGGGSTYYADSVKGRFTISRDNAKNTVYLQMNSLKPEDTAVYYCATDRRHEYSSRRYYYWGQGTQVTVSS | high polyreactivity |
| QVQLVESGGGLVQAGGSLRLSCAASGSIFWWYGMGWYRQAPGKEREFVADITSGGGTYYADSVKGRFTISRDNAKNTVYLQMNSLKPEDTAVYYCAADVRAYRFDYYFDYWGQGTQVTVSS | low polyreactivity |
| QVQLVESGGGLVQAGGSLRISCAASGRTFGRYAMEWYRQAPGKERELVAAISWSGGSTYYADSVKGRFTISRDNAKNTVYLQMNSLKPEATAVYYCAAVTTDGVYAFDYWGQGTQVTVSS | low polyreactivity |
| QVQLVESGGGLVQAGGSLRLSCAASGFTFGRYAMGWYRQAPGKERELLAGITWSGGSTSYADSVKGRFTISRDNAKNTVYFQMNSLKPEDTAVYYCATRARYTRVQGRRYAYDYWGQGTQVTVSS | high polyreactivity |
| QVQLVESGGGLVQAGGSLRLSCAASSIFPSNAMGLYRPAPGKERELVAAISSGGSTNYADSVKGRFTISRDNAKNTVYLQMNSLKPEDTAVYYCAAVRYYRRRTGSYYHYDYWGQGTQVTVSS | low polyreactivity |
| QVQLVESGGGLVQAGGSLRLSCAASGFISDWYAMGWYRQAPGTERELVATIDWIGGSTYADSVKGRFTISRDNAKNTVYLQMNSLKPEDTAVYYCAADSYFIAWYGAHYAYDYWGQGTQVTVSS | low polyreactivity |
| QVQLVDSGGGLVQAGGSLRLSCAASGSTLRRYAMGWYRQAPGKERELVAAISGSGDSTYYADSVKGRFTISRDNAKNTVYLQMNSLKPEDTAVYYCNAVYAFNGYDYWGQGTQVTVSS | low polyreactivity |
| QVQLVESGGGLVQAGGSLRLSCAASGITFRNYAMVWSRQAPGKERELVADITTGGSTYADSVKGRFTISRDNAKNTVYLQMISLNPEDTAVYYCAADRDFRTPRLYYWGQGTQVTVSS | low polyreactivity |
| QVQIVESGGGLFQAGGSLRISCAASGFTFPNYAMGWYRQAPGKERELVAAITSGGGRSNYADCVKGRFTISRDNAKKTFYLEMNSLKPEDSAVYYCAKTRVRGSEFGYWGQGTQVTVSS | low polyreactivity |
